Test system: Bacillus subtilis
Test: cleaved RNA product abundance (RNA/gDNA barcode ratio) relative to median wild-type variant (ratio to wild type); higher = more accumulation of the downstream cleavage product
Details: cleavage site: cggR-gapA (positions -7 to +36 mutated)
In short: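 In LB at 37°C, B. subtilis cultures went from OD600 0.0003 to 0.3. Their chromosomes held barcoded reporter mRNAs, truncated aprE or tetM, with RNase Y cleavage-site windows mutagenized via oligos at a 9% error rate. Cleaved RNA, chosen by gel, was reverse transcribed and barcode-sequenced alongside genomic DNA barcodes with UMI collapsing, giving a per-construct RNA:gDNA ratio scaled to the median construct with the unmutated site. This scaled ratio is termed cleaved product abundance.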

[1] = experiment (reporter, strain, medium): exp 2b: truncated aprE reporter, strain BJT200
[2] = experiment (reporter, strain, medium): exp 4a: truncated aprE reporter, strain BJT201 with 2% xylose (RNase J1 expressed)

Sequence | cleaved RNA product abundance [1] | cleaved RNA product abundance [2] | cleaved RNA product abundance (experiment (reporter, strain, medium): exp 6: tetM reporter, strain 168)
ACAGACGAAGGAGCCGCAAAGAAGTTATTAAGGAATGAAGAATCCCTCAATATAAATATCTCTCACTTATTTAAA | 0.0952 | 0.17 | 
ACAGACGAAGGAGCCGCAAAGAAGTTATTAAGGAATGAATAAACCCTCAATATAAATATCTCTCACTTATTTAAA | 0.0981 | 0.11 | 
ACAGACGAAGGAGCCGCAAAGAAGTTATTAAGGAATGAATAACCCCTCAATATAAATATCTCTCACTTATTTAAA |  | 0.101 | 
ACAGACGAAGGAGCCGCAAAGAAGTTATTAAGGAATGAATAATACCTCAATATAAATATCTCTCACTTATTTAAA | 0.121 | 0.124 | 
ACAGACGAAGGAGCCGCAAAGAAGTTATTAAGGAATGAATAATCACTCAATATAAATATCTCTCACTTATTTAAA | 0.111 | 0.124 | 
ACAGACGAAGGAGCCGCAAAGAAGTTATTAAGGAATGAATAATCCATCAATATAAATATCTCTCACTTATTTAAA | 0.0915 | 0.124 | 
ACAGACGAAGGAGCCGCAAAGAAGTTATTAAGGAATGAATAATCCCACAATATAAATATCTCTCACTTATTTAAA |  | 0.0935 | 
ACAGACGAAGGAGCCGCAAAGAAGTTATTAAGGAATGAATAATCCCCCAATATAAATATCTCTCACTTATTTAAA | 0.122 | 0.115 | 
ACAGACGAAGGAGCCGCAAAGAAGTTATTAAGGAATGAATAATCCCGCAATATAAATATCTCTCACTTATTTAAA |  | 0.0576 | 
ACAGACGAAGGAGCCGCAAAGAAGTTATTAAGGAATGAATAATCCCTAAATATAAATATCTCTCACTTATTTAAA | 0.152 | 0.147 | 
ACAGACGAAGGAGCCGCAAAGAAGTTATTAAGGAATGAATAATCCCTCAAAATAAATATCTCTCACTTATTTAAA | 0.0937 | 0.122 | 
ACAGACGAAGGAGCCGCAAAGAAGTTATTAAGGAATGAATAATCCCTCAACATAAATATCTCTCACTTATTTAAA |  | 0.0941 | 
ACAGACGAAGGAGCCGCAAAGAAGTTATTAAGGAATGAATAATCCCTCAAGATAAATATCTCTCACTTATTTAAA |  | 0.0834 | 
ACAGACGAAGGAGCCGCAAAGAAGTTATTAAGGAATGAATAATCCCTCAATAAAAATATCTCTCACTTATTTAAA | 0.0974 | 0.0766 | 
ACAGACGAAGGAGCCGCAAAGAAGTTATTAAGGAATGAATAATCCCTCAATATAAAAAACTCTCACTTATTTAAA |  | 0.0884 | 
ACAGACGAAGGAGCCGCAAAGAAGTTATTAAGGAATGAATAATCCCTCAATATAAAAATCTCTCACTTATTTAAA | 0.127 | 0.161 | 
ACAGACGAAGGAGCCGCAAAGAAGTTATTAAGGAATGAATAATCCCTCAATATAAACATCTCTCACTTATTTAAA |  | 0.121 | 
ACAGACGAAGGAGCCGCAAAGAAGTTATTAAGGAATGAATAATCCCTCAATATAAAGATCTCTCACTTATTTAAA |  | 0.0766 | 
ACAGACGAAGGAGCCGCAAAGAAGTTATTAAGGAATGAATAATCCCTCAATATAAATAACTCTCACTTATTTAAA |  | 0.21 | 
ACAGACGAAGGAGCCGCAAAGAAGTTATTAAGGAATGAATAATCCCTCAATATAAATACCTCTCACTTATTTAAA | 0.0997 |  | 

Sequence | cleaved RNA product abundance [1] | cleaved RNA product abundance [2] | cleaved RNA product abundance (experiment (reporter, strain, medium): exp 6: tetM reporter, strain 168)
ACAGACGAAGGAGCCGCAAAGAAGTTATTAAGGAATGAATAATCCCTCAATATAAATAGCTCTCACTTATTTAAA | 0.108 | 0.095 | 
ACAGACGAAGGAGCCGCAAAGAAGTTATTAAGGAATGAATAATCCCTCAATATAAATATCTCTCACTTATTTAAA | 0.109 | 0.132 | 0.126
ACAGACGAAGGAGCCGCAAAGAAGTTATTAAGGAATGAATAATCCCTCAATATAAATATTTCTCACTTATTTAAA |  | 0.136 | 
ACAGACGAAGGAGCCGCAAAGAAGTTATTAAGGAATGAATAATCCCTCAATATAAATTTCTCTCACTTATTTAAA | 0.114 | 0.142 | 
ACAGACGAAGGAGCCGCAAAGAAGTTATTAAGGAATGAATAATCCCTCAATATAAGTATCTCTCACTTATTTAAA |  | 0.0312 | 
ACAGACGAAGGAGCCGCAAAGAAGTTATTAAGGAATGAATAATCCCTCAATATAATTATCTCTCACTTATTTAAA |  | 0.117 | 
ACAGACGAAGGAGCCGCAAAGAAGTTATTAAGGAATGAATAATCCCTCAATATACATATCTCTCACTTATTTAAA |  | 0.118 | 
ACAGACGAAGGAGCCGCAAAGAAGTTATTAAGGAATGAATAATCCCTCAATATAGATATCTCTCACTTATTTAAA |  | 0.101 | 
ACAGACGAAGGAGCCGCAAAGAAGTTATTAAGGAATGAATAATCCCTCAATATATATATCTCTCACTTATTTAAA | 0.0862 | 0.149 | 
ACAGACGAAGGAGCCGCAAAGAAGTTATTAAGGAATGAATAATCCCTCAATATCAATATCTCTCACTTATTTAAA |  | 0.0389 | 
ACAGACGAAGGAGCCGCAAAGAAGTTATTAAGGAATGAATAATCCCTCAATCTAAATATCTCTCACTTATTTAAA |  | 0.0695 | 
ACAGACGAAGGAGCCGCAAAGAAGTTATTAAGGAATGAATAATCCCTCAATTTAAATATCTCTCACTTATTTAAA | 0.0901 | 0.0591 | 
ACAGACGAAGGAGCCGCAAAGAAGTTATTAAGGAATGAATAATCCCTCACTATAAATATCTCTCACTTATTTAAA | 0.0964 |  | 
ACAGACGAAGGAGCCGCAAAGAAGTTATTAAGGAATGAATAATCCCTCAGTATAAATATCTCTCACTTATTTAAA |  | 0.15 | 
ACAGACGAAGGAGCCGCAAAGAAGTTATTAAGGAATGAATAATCCCTCATTATAAATATCTCTCACTTATTTAAA | 0.102 | 0.0579 | 
ACAGACGAAGGAGCCGCAAAGAAGTTATTAAGGAATGAATAATCCCTCCATATAAATATCTCTCACTTATTTAAA |  | 0.0857 | 
ACAGACGAAGGAGCCGCAAAGAAGTTATTAAGGAATGAATAATCCCTCTATATAAATATCTCTCACTTATTTAAA | 0.12 | 0.119 | 
ACAGACGAAGGAGCCGCAAAGAAGTTATTAAGGAATGAATAATCCCTGAATATAAATATCTCTCACTTATTTAAA |  | 0.0984 | 
ACAGACGAAGGAGCCGCAAAGAAGTTATTAAGGAATGAATAATCCCTTAATATAAATATCTCTCACTTATTTAAA | 0.68 | 0.588 | 
ACAGACGAAGGAGCCGCAAAGAAGTTATTAAGGAATGAATAATCCGTCAATATAAATATCTCTCACTTATTTAAA | 0.0733 | 0.0653 | 

Sequence | cleaved RNA product abundance [1] | cleaved RNA product abundance [2] | cleaved RNA product abundance (experiment (reporter, strain, medium): exp 6: tetM reporter, strain 168)
ACAGACGAAGGAGCCGCAAAGAAGTTATTAAGGAATGAATAATCCTTCAATATAAATATCTCTCACTTATTTAAA | 0.148 | 0.265 | 
ACAGACGAAGGAGCCGCAAAGAAGTTATTAAGGAATGAATAATCGCTCAATATAAATATCTCTCACTTATTTAAA |  | 0.0645 | 
ACAGACGAAGGAGCCGCAAAGAAGTTATTAAGGAATGAATAATCTCTCAATATAAATATCTCTCACTTATTTAAA | 0.0991 | 0.155 | 
ACAGACGAAGGAGCCGCAAAGAAGTTATTAAGGAATGAATAATGCCTCAATATAAATATCTCTCACTTATTTAAA |  | 0.0706 | 
ACAGACGAAGGAGCCGCAAAGAAGTTATTAAGGAATGAATAATTCCTCAATATAAATATCTCTCACTTATTTAAA | 0.756 | 0.872 | 
ACAGACGAAGGAGCCGCAAAGAAGTTATTAAGGAATGAATACTCCCTCAATATAAATATCTCTCACTTATTTAAA | 0.116 | 0.106 | 
ACAGACGAAGGAGCCGCAAAGAAGTTATTAAGGAATGAATAGTCCCTCAATATAAATATCTCTCACTTATTTAAA | 0.101 | 0.114 | 
ACAGACGAAGGAGCCGCAAAGAAGTTATTAAGGAATGAATATTCCCTCAATATAAATATCTCTCACTTATTTAAA | 0.178 | 0.279 | 
ACAGACGAAGGAGCCGCAAAGAAGTTATTAAGGAATGAATCATCCCTCAATATAAATATCTCTCACTTATTTAAA |  | 0.151 | 
ACAGACGAAGGAGCCGCAAAGAAGTTATTAAGGAATGAATGATCCCTCAATATAAATATCTCTCACTTATTTAAA |  | 0.0629 | 
ACAGACGAAGGAGCCGCAAAGAAGTTATTAAGGAATGAATTATCCCTCAATATAAATATCTCTCACTTATTTAAA |  | 0.0807 | 
ACAGACGAAGGAGCCGCAAAGAAGTTATTAAGGAATGACTAATCCCTCAATATAAATATCTCTCACTTATTTAAA |  | 0.103 | 
ACAGACGAAGGAGCCGCAAAGAAGTTATTAAGGAATGAGTAATCCCTCAATATAAATATCTCTCACTTATTTAAA | 0.119 | 0.131 | 
ACAGACGAAGGAGCCGCAAAGAAGTTATTAAGGAATGATTAATCCCTCAATATAAATATCTCTCACTTATTTAAA | 0.115 | 0.11 | 
ACAGACGAAGGAGCCGCAAAGAAGTTATTAAGGAATGTATAATCCCTCAATATAAATATCTCTCACTTATTTAAA | 0.104 | 0.169 | 
ACAGACGAAGGAGCCGCAAAGAAGTTATTAAGGAATTAATAATCCCTCAATATAAATATCTCTCACTTATTTAAA | 0.103 | 0.137 | 
ACAGACGAAGGAGCCGCAAAGAAGTTATTAAGGAATTATTAATCCCTCAATATAAATATCTCTCACTTATTTAAA |  | 0.203 | 
ACAGACGAAGGAGCCGCAAAGAAGTTATTAAGGACTGAATAATCCCTCAATATAAATATCTCTCACTTATTTAAA | 0.0791 | 0.0888 | 

Reference: the supplement of paper PMC11780869
